In paper PMC5821942, “Crystal structure of IspF from Bacillus subtilis and absence of protein complex assembly amongst IspD/IspE/IspF enzymes in the MEP pathway” (Bioscience Reports, 2018):

Key:
[1] = biological target: the molecule itself; assay: SEC; Superdex200 10/300 GL; single E. coli proteins and triple mixture (0.2 mg each, 250 μl); 100 mM NaCl, 25 mM Tris/HCl pH 8.0; 1 mM MgCl2, 1 mM MEP, 1 mM CTP if IspD present; 30°C 30 min
[2] = biological target: the molecule itself; assay: crystal structure; BsIspF native and with CMP, space group P2(1), six monomers in the asymmetric unit, 1.99 Å
[3] = biological target: the molecule itself; assay: SEC; Superdex75 10/300 GL; single B. subtilis proteins and triple mixture (0.2 mg each, 250 μl); 100 mM NaCl, 25 mM Tris/HCl pH 8.0; 1 mM MgCl2, 1 mM MEP, 1 mM CTP if IspD present; 30°C 30 min

| Protein | stoichiometry N [1] | further results |
| --- | --- | --- |
| 2-C-Methyl-D-erythritol-4-phosphate cytidyltransferase (IspD) from Escherichia coli (enzyme, Escherichia coli K12, UniProt Q46893 1-236, looked up, IspD of E. coli K12; ispD gene PCR amplified and inserted into pET-22b; histidine tag removed by thrombin; also called EcIspD; source: E. coli BL21 (DE3) (pET-22b), purified (Ni-NTA, Resource Q, Superdex 75); not shown: His6, C-terminal, cleaved) MATTHLDVCAVVPAAGFGRRMQTECPKQYLSIGNQTILEHSVHALLAHPRVKRVVIAISPGDSRFAQLPLANHPQITVVDGGDERADSVLAGLKAAGDAQWVLVHDAARPCLHQDDLARLLALSETSRTGGILAAPVRDTMKRAEPGKNAIAHTVDRNGLWHALTPQFFPRELLHDCLTRALNEGATITDEASALEYCGFHPQLVEGRADNIKVTRPEDLALAEFYLTRTIHQENT | 2 | – |
| 2-C-Methyl-D-erythritol 2,4-cyclodiphosphate synthase (IspF) from Bacillus subtilis (enzyme, Bacillus subtilis 168, IspF of B. subtilis 168 (DSM 23778); ispF gene amplified from genomic DNA, ~477 bp product, cloned BamHI/XhoI into pGEX-6P-1; GST removed by PreScission protease; also called BsIspF; MEcDP synthase; source: E. coli DH5α (pGEX-6P-1), purified (Glutathione Sepharose 4 Fast Flow, Resource Q, Superdex 75)) MFRIGQGFDVHQLVEGRPLIIGGIEIPYEKGLLGHSDADVLLHTVADACLGAVGEGDIGKHFPDTDPEFKDADSFKLLQHVWGIVKQKGYVLGNIDCTIIAQKPKMLPYIEDMRKRIAEGLEADVSQVNVKATTTEKLGFTGRAEGIAAQATVLIQKG | – | stoichiometry N [2]: 3 |
| 2-C-Methyl-D-erythritol 2,4-cyclodiphosphate synthase (IspF) from Escherichia coli (enzyme, Escherichia coli K12, UniProt P62617 1-159, looked up, IspF of E. coli K12; ispF gene PCR amplified and inserted into pET-22b; histidine tag removed by thrombin; also called EcIspF; source: E. coli BL21 (DE3) (pET-22b), purified (Ni-NTA, Resource Q, Superdex 75); not shown: His6, C-terminal, cleaved) MRIGHGFDVHAFGGEGPIIIGGVRIPYEKGLLAHSDGDVALHALTDALLGAAALGDIGKLFPDTDPAFKGADSRELLREAWRRIQAKGYTLGNVDVTIIAQAPKMLPHIPQMRVFIAEDLGCHMDDVNVKATTTEKLGFTGRGEGIACEAVALLIKATK | 3 | – |
| 2-C-Methyl-D-erythritol-4-phosphate cytidyltransferase (IspD) from Bacillus subtilis (enzyme, Bacillus subtilis 168, UniProt Q06755 1-232, looked up, IspD of B. subtilis 168 (DSM 23778); ispD gene amplified from genomic DNA, ~699 bp product, cloned BamHI/XhoI into pGEX-6P-1; GST removed by PreScission protease; also called BsIspD; source: E. coli DH5α (pGEX-6P-1), purified (Glutathione Sepharose 4 Fast Flow, Resource Q, Superdex 75)) MSYDVVIPAAGQGKRMKAGRNKLFIELKGDPVIIHTLRVFDSHRQCDKIILVINEQEREHFQQLLSDYPFQTSIELVAGGDERQHSVYKGLKAVKQEKIVLVHDGARPFIKHEQIDELIAEAEQTGAAILAVPVKDTIKRVQDLQVSETIERSSLWAVQTPQAFRLSLLMKAHAEAERKGFLGTDDASLVEQMEGGSVRVVEGSYTNIKLTTPDDLTSAEAIMESESGNKHV | – | stoichiometry N [3]: 2 |
